Assay results: paper PMC3392113 (Human Molecular Genetics, 2012)

Target: the molecule itself
Test: SDS-PAGE

B1: MBP-ΔN597 (human DISC1 amino acids 326-597 fused to maltose-binding protein) (domain or fragment, UniProt Q9NRI5 326-597, looked up)
chain: WDTLLRKWEPVLRDCLLRNRRQMEVISLRLKLQKLQEDAVENDDYDKAETLQQRLEDLEQEKISLHFQLPSRQPALSSFLGHLAAQVQAALRRGATQQASGDDTHTPLRMEPRLLEPTAQDSLHVSITRRDWLLQEKQQLQKEIEALQARMFVLEAKDQQLRREIEEQEQQLQWQGCDLTPLVGQLSLGQLQEVSKALQDTLASAGQIPFHAEPPETIRSLQERIKSLNLSLKEITTKVCMSEKFCSTLRKKVNDIETQLPALLEAKMHAIS
- stoichiometry N: 2
